Our source for the Kd values is doi:10.1101/2021.09.16.460643 (bioRxiv, 2021).

For assay [1], the target named is receiver domain of ARABIDOPSIS … KINASE 5 (AHK5RD), labelled with Alexa Fluor-488 (Arabidopsis thaliana) (UniProt Q3S4A7). Nature of the assay: MST.
Assay [2] concerns the target T1, ETR1 fragment comprising both HK and RD domain (ETR1HK-RD) (Arabidopsis thaliana, UniProt P49333 324-738).
T1 sequence (looked up): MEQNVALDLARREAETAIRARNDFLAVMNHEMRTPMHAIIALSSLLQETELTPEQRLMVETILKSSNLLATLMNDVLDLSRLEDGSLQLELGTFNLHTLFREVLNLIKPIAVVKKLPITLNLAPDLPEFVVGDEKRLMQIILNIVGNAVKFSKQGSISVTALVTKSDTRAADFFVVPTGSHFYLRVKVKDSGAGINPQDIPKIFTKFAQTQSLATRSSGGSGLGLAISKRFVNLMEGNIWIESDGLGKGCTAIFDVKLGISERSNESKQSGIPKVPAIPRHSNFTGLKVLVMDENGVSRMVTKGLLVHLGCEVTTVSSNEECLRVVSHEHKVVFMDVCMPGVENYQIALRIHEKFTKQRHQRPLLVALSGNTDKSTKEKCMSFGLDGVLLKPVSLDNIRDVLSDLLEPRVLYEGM
Nature of the assay: MST.

As usually defined, the Kd is the concentration at which binding is half-saturated. A lower Kd goes with a tighter complex. In the case of “histidine kinase domain of ETHYLENE RESPONSE 1 (ETR1HK) (domain or fragment)”, the Kd in assay [1] came to 166 µM.

B1: receiver domain of ARABIDOPSIS … KINASE 5 (AHK5RD), labelled with Alexa Fluor-488 (domain or fragment, Arabidopsis thaliana)
chain: ETSKPKILLVEDNKINIMVAKSMMKQLGHTMDIANNGVEAITAINSSSYDLVLMDVCMPVLDGLKATRLIRSYEETGNWNAAIEAGVDISTSENEQVCMRPTNRLPIIAMTANTLAESSEECYANGMDSFISKPVTLQKLRECLQQYLH
modifications: Alexa Fluor-488 label (site not stated; printed as Alexa-Fluor 484 in the anisotropy methods)
As to B1, the Kd in assay [2] is 167 ± 50 µM.
